Data taken from patent publication US20190048089A1 (Janssen / Centocor, published 2019).
Numbering of substitutions follows the chain as printed.

T1: cyno CD40 on cyno spleen B cells (Macaca fascicularis (cynomolgus), UniProt P25942 21-277 (human entry))
T1 chain: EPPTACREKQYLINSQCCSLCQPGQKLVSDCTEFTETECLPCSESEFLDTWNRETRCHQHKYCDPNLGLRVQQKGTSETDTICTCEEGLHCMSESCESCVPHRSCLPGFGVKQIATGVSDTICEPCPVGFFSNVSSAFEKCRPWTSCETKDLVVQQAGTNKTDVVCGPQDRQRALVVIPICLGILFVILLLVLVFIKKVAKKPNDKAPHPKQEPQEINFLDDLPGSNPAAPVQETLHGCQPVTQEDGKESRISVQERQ

B1: Antibody D (antibody, human IgG1, kappa, L234A L235A, V domains shown)
VH: EVQLVESGGGLVKPGGSLRLSCAASGFTFSDYGMHWVRQAPGKGLEWVAYISSGNRIIYYADTVKGRFTISRDNAKNSLYLQMNSLRAEDTAVYYCARQDGYRYAMDYWGQGTLVTVSS
VL: DIVMTQSPDSLAVSLGEKVTINCKSSQSLLNSGNQKNYLTWHQQKPGQPPKLLIYWTSTRESGVPDRFSGSGSGTDFTLTISSLQAEDVAVYYCQNDYTYPLTFGGGTKVEIKR
notes: Benchmark; also called antibody B IgG1KOb (U.S. Pat. No. 8,591,900)
B2: C40B127 (antibody, human IgG1, lambda)
heavy: EVQLVESGGGLVQPGGSLRLSCAASGFTFSSYAMSWVRQAPGKGLEWVSTINQAGGGTYYADSVKGRFTISRDNSKNTLYLQMNSLRAEDTAVYYCAKEGGKYYYYAMDVWGQGTTVTVSSASTKGPSVFPLAPSSKSTSGGTAALGCLVKDYFPEPVTVSWNSGALTSGVHTFPAVLQSSGLYSLSSVVTVPSSSLGTQTYICNVNHKPSNTKVDKKVEPKSCDKTHTCPPCPAPEAAGASSVFLFPPKPKDTLMISRTPEVTCVVVDVSAEDPEVKFNWYVDGVEVHNAKTKPREEQYNSTYRVVSVLTVLHQDWLNGKEYKCKVSNKALPSSIEKTISKAKGQPREPQVYTLPPSREEMTKNQVSLTCLVKGFYPSDIAVEWESNGQPENNYKTTPPVLDSDGSFFLYSKLTVDKSRWQQGNVFSCSVMHEALHNHYTQKSLSLSPGK
light: SYELTQPPSVSVSPGQTASITCSGDKLGDKYAAWYQQKPGQSPVLVIYQDSRRPSGIPERFSGSNSGNTATLTISGTQAMDEADYYCQAWASSTVVFGGGTKLTVLGQPKAAPSVTLFPPSSEELQANKATLVCLISDFYPGAVTVAWKADSSPVKAGVETTTPSKQSNNKYAASSYLSLTPEQWKSHRSYSCQVTHEGSTVEKTVAPTECS
notes: IgG1sigma
B3: C40B125 (antibody, human IgG1, lambda)
heavy: B2 heavy with N52Q, Q53N
light: B2 light
notes: IgG1sigma
B4: C40B138 (antibody, human IgG4 S228P, lambda, F234A L235A)
heavy: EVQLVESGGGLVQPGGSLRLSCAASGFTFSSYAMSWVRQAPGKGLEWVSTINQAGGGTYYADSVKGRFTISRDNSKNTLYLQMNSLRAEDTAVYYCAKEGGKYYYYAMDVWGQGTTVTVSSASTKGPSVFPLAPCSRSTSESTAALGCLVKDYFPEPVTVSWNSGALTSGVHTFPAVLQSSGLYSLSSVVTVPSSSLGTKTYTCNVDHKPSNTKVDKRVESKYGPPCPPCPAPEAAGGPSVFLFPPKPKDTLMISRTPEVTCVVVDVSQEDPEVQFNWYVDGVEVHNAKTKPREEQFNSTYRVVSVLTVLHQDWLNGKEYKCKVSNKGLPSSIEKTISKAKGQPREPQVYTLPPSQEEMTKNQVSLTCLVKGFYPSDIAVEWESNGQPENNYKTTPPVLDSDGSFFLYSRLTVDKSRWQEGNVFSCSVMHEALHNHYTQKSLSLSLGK
light: B2 light
notes: IgG4PAA
B5: C40B179 (antibody, human IgG1, lambda)
heavy: B2 heavy with M108L
light: B2 light
notes: IgG1sigma
B6: C40B136 (antibody, human IgG4 S228P, lambda, F234A L235A)
heavy: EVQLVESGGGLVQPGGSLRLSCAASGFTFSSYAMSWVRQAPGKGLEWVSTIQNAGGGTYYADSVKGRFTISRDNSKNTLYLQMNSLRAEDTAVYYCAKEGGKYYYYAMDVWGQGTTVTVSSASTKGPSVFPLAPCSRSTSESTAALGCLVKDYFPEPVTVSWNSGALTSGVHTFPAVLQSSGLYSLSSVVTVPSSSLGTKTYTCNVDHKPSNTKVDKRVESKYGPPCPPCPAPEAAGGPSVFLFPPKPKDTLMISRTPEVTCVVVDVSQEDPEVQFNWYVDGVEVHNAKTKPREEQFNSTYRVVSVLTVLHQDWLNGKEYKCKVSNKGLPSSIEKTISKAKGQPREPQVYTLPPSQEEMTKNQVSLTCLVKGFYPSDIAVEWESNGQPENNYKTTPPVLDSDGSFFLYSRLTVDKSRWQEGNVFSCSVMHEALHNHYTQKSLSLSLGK
light: B2 light
notes: IgG4PAA
B7: C40B180 (antibody, human IgG4 S228P, lambda, F234A L235A)
heavy: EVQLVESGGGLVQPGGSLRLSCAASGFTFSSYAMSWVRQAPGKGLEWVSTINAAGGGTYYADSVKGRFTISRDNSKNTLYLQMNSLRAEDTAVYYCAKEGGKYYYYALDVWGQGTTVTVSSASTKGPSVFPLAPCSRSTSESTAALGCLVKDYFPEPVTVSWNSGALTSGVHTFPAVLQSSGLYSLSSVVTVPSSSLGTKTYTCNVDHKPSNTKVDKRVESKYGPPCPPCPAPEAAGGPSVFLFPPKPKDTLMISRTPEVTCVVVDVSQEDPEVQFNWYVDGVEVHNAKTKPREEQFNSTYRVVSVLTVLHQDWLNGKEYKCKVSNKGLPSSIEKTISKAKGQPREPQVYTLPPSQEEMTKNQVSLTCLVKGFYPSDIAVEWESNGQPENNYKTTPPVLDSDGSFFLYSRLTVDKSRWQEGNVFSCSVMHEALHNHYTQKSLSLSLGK
light: B2 light
notes: IgG4PAA
B8: C40B183 (antibody, human IgG4 S228P, lambda, F234A L235A)
heavy: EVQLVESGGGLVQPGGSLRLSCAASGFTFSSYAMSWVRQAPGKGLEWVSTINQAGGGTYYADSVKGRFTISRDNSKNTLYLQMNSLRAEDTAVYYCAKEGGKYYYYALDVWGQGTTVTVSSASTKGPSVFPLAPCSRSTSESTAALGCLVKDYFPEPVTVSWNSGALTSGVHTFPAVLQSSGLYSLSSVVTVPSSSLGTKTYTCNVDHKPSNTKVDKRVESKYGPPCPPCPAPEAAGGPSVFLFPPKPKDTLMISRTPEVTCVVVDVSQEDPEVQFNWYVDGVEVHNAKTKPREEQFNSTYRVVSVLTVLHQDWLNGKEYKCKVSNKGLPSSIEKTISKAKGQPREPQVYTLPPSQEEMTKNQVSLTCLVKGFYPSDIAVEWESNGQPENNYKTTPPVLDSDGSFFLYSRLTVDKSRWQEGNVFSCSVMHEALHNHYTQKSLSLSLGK
light: B2 light
notes: IgG4PAA
B9: C40B135 (antibody, human IgG4 S228P, lambda, F234A L235A)
heavy: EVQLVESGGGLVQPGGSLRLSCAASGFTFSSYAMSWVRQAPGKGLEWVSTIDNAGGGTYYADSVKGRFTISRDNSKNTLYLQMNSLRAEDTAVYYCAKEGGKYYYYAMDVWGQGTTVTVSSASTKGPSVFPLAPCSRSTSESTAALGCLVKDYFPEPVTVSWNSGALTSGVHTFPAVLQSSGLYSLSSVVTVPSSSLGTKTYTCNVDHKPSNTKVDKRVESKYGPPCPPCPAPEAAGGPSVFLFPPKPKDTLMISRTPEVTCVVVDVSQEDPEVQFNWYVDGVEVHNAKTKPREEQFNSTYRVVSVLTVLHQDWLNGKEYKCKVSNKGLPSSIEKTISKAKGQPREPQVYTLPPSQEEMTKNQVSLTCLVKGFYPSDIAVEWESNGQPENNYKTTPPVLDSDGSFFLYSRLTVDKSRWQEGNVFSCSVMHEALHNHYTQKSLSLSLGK
light: B2 light
notes: IgG4PAA
B10: C40B124 (antibody, human IgG1, lambda)
heavy: B2 heavy with N52D, Q53N
light: B2 light
notes: IgG1sigma
B11: C40B131 (antibody, human IgG4 S228P, lambda, F234A L235A, V domains shown)
VH: EVQLVESGGGLVQPGGSLRLSCAASGFTFSSYAMSWVRQAPGKGLEWVSTINAAGGGTYYADSVKGRFTISRDNSKNTLYLQMNSLRAEDTAVYYCAKEGGKYYYYAMDVWGQGTTVTVSS
VL: SYELTQPPSVSVSPGQTASITCSGDKLGDKYAAWYQQKPGQSPVLVIYQDSRRPSGIPERFSGSNSGNTATLTISGTQAMDEADYYCQAWASSTVVFGGGTKLTVLG
notes: IgG4PAA
B12: C40B16 (antibody, human IgG1, lambda, V domains shown)
VH: B11 VH with K43R, A53N, A54S, Q82H
VL: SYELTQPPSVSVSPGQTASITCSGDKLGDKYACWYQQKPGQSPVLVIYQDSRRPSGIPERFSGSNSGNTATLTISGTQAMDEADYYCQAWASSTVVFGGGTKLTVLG
notes: Wild-type IgG1, lambda light chain; also called parental C40B16

These binders were tested against T2, human CD40 on cells (human tonsillar B cells, human dendritic cells, HEK-Blue CD40L cells) (human, UniProt P25942 21-277) (assay: cell-based or functional assay).

| IC50, B cell proliferation, membrane CD40L, human B-cells | IC50, B cell proliferation, soluble CD40L, human B-cells | Binder |
| --- | --- | --- |
| 1930 pM | 680 pM | B1 |

Biological target: T1, cyno CD40 on cyno spleen B cells
Assay: cell-based or functional assay

| IC50, sCD40L-driven cyno B-cell proliferation | Binder |
| --- | --- |
| 66 pM | B2 |
| 83 pM | B3 |
| 75 pM | B4 |
| 119 pM | B5 |
| 65 pM | B6 |
| 109 pM | B7 |
| 110 pM | B8 |
| 77 pM | B9 |

Biological target: T2, human CD40 on cells (human tonsillar B …)
Assay: cell-based or functional assay
Remark: another data set of the same source

| IC50, mCD40L-driven human B-cell proliferation | IC50, sCD40L-driven human B-cell proliferation | Binder |
| --- | --- | --- |
| 118 pM | – | B10 |
| 111 pM | 73 pM | B2 |
| 128 pM | 88 pM | B3 |
| 106 pM | 48 pM | B4 |
| 178 pM | 132 pM | B5 |
| 122 pM | 87 pM | B6 |
| 136 pM | 92 pM | B7 |
| 140 pM | 103 pM | B8 |
| 131 pM | 56 pM | B9 |
| 99 pM | – | B11 |

The binders below were run against T3, human CD40 (analyte in SPR) (human, UniProt P25942 21-193) (assay: SPR, ProteOn XPR36, mAb captured on anti-human IgG Fc, CD40 as analyte, 25 C, 1:1 Langmuir).
T3 construct: also called huCD40
Protocol: Affinity of the antibodies to human CD40 was assessed using Surface Plasmon Resonance (SPR) using a ProteOn XPR36 system (BioRad). […] Approximately 5000 RU (response units) of mAbs were immobilized. The kinetic experiments were performed at 25° C. in running buffer (DPBS+0.01% P20+100 μg/ml BSA). To perform kinetic experiments, 200 RU of mAbs were captured followed by injections of analytes (human or cyno CD40) at 5 concentrations (in a 4-fold serial dilution). The association phase was monitored for 3 minutes at 50 μL/min, then followed by 15 minutes of buffer flow (dissociation phase). The chip surface was regenerated with two 18 second pulses of 100 mM H₃PO₄ (Sigma, Cat#7961) at 100 μL/min.
The collected data were processed using ProteOn Manager software. First, the data was corrected for background using inter-spots. Then, double reference subtraction of the data was performed by using the buffer injection for analyte injections. The kinetic analysis of the data was performed using a Langmuir 1:1 binding model. The results were reported in the format of Ka (On-rate), Kd (Off-rate) and KD (equilibrium dissociation constant).

| Kd | koff | kon | Binder |
| --- | --- | --- | --- |
| 36.8 pM | 0.000157 s⁻¹ | 4.27e+06 M⁻¹ s⁻¹ | B12 |
| 41.6 pM | 9.56e-05 s⁻¹ | 2.3e+06 M⁻¹ s⁻¹ | B10 |
| 30.3 pM | 0.000115 s⁻¹ | 3.79e+06 M⁻¹ s⁻¹ | B2 |
| 34.9 pM | 0.000136 s⁻¹ | 3.89e+06 M⁻¹ s⁻¹ | B3 |
| 59.9 pM | 0.000215 s⁻¹ | 3.58e+06 M⁻¹ s⁻¹ | B4 |
| 93.3 pM | 0.000267 s⁻¹ | 2.86e+06 M⁻¹ s⁻¹ | B5 |
| 34.3 pM | 0.000113 s⁻¹ | 3.3e+06 M⁻¹ s⁻¹ | B6 |
| 137 pM | 0.000366 s⁻¹ | 2.67e+06 M⁻¹ s⁻¹ | B7 |
| 121 pM | 0.00035 s⁻¹ | 2.91e+06 M⁻¹ s⁻¹ | B8 |
| 49.6 pM | 0.000145 s⁻¹ | 2.93e+06 M⁻¹ s⁻¹ | B9 |
| 81.2 pM | 0.000286 s⁻¹ | 3.52e+06 M⁻¹ s⁻¹ | B11 |

Biological target: T2, human CD40 on cells (human tonsillar B …)
Assay: cell-based or functional assay
Remark: another data set of the same source

| IC50, human DC IL-12p40 production, membrane CD40L | IC50, human DC IL-12p40 production, soluble CD40L | Binder |
| --- | --- | --- |
| 3630 pM | 781 pM | B1 |

What follows are binders tested against T3, human CD40 (analyte in SPR) (assay: affinity in benchmark table; method not restated (SPR ProteOn of Example 3 presumed)).

| Kd | Binder |
| --- | --- |
| 34.3 pM | B5 |
| 59.9 pM | B7 |
| 107 pM | B8 |
| 580 pM | B1 |

Biological target: T2, human CD40 on cells (human tonsillar B …)
Assay: cell-based or functional assay
Remark: another data set of the same source

| IC50, mCD40L-driven DC IL-12p40 production | IC50, sCD40L-driven DC IL-12p40 production | Binder |
| --- | --- | --- |
| 507 pM | 387 pM | B10 |
| 383 pM | 270 pM | B2 |
| 393 pM | 244 pM | B3 |
| 341 pM | 262 pM | B4 |
| 297 pM | 184 pM | B5 |
| 379 pM | 246 pM | B6 |
| 222 pM | 225 pM | B7 |
| 291 pM | 208 pM | B8 |
| 430 pM | 329 pM | B9 |
| 323 pM | 330 pM | B11 |
